From patent US20190375839A1 (JIANGSU HENGRUI MEDICINE, published 2019) come the findings set out here.

To fix the notation:
B1: h1701-005 (antibody, human IgG4 S228P, kappa, V domains shown)
VH: QVQLVQSGAEVKKPGASVKVSCKASGYTFTDYYMNWVRQAPGQGLEWMGDIIPNNGGSKYNQKFKDRVTMTTDTSTSTAYMELRSLRSDDTAVYYCARWGYGSSYRWFDYWGQGTLVTVSS
VL: DIQMTQSPSSLSASVGDRVTITCLASQPIGIWLAWYQQKPGKAPKLLIYAATSLADGVPSRFSGSGSGTDFTFTISSLQPEDIATYYCQQLYSSPWTFGGGTKVEIKR
notes: Humanized IgG4 (S228P)/kappa
B2: h1701-018 (antibody, human IgG4 S228P, kappa, V domains shown)
VH: QVQLVQSGAEVKKPGASVKVSCKASGYTFTDYYMNWVKQAPGQGLEWIADIIPNNGGSKYNQKFKDRATLTTDTSTSTAYMELRSLRSEDTAVYYCATWGYGSSYRWFDYWGQGTLVTVSS
VL: DIQMTQSPSSLSASVGDRVTITCLASQPIGIWLAWYQQKPGKSPKLLIYAATSLADGVPSRFSGSGSGTDFTFTISSLQPEDIATYYCQQLYSSPWTFGGGTKVEIKR
notes: Humanized IgG4 (S228P)/kappa
B3: h1701-008 (antibody, human IgG4 S228P, kappa, V domains shown)
VH: QVQLVQSGAEVKKPGASVKVSCKASGYTFTDYYMNWVRQAPGQGLEWIGDIIPNNGGSKYNQKFKDRVTMTTDTSTSTAYMELRSLRSDDTAVYYCARWGYGSSYRWFDYWGQGTLVTVSS
VL: DIQMTQSPSSLSASVGDRVTITCLASQPIGIWLAWYQQKPGKSPKLLIYAATSLADGVPSRFSGSGSGTDFTFTISSLQPEDIATYYCQQLYSSPWTFGGGTKVEIKR
notes: Humanized IgG4 (S228P)/kappa
B4: h1701-015 (antibody, human IgG4 S228P, kappa, V domains shown)
VH: QVQLVQSGAEVKKPGASVKVSCKASGYTFTDYYMNWVRQAPGQGLEWIADIIPNNGGSKYNQKFKDRATLTTDTSTSTAYMELRSLRSDDTAVYYCATWGYGSSYRWFDYWGQGTLVTVSS
VL: DIQMTQSPSSLSASVGDRVTITCLASQPIGIWLAWYQQKPGKAPKLLIYAATSLADGVPSRFSGSGSGTDFTFTISSLQPEDIATYYCQQLYSSPWTFGGGTKVEIKR
notes: Humanized IgG4 (S228P)/kappa
B5: h1701-006 (antibody, human IgG4 S228P, kappa, V domains shown)
VH: QVQLVQSGAEVKKPGASVKVSCKASGYTFTDYYMNWVRQAPGQGLEWMGDIIPNNGGSKYNQKFKDRVTMTTDTSTSTAYMELRSLRSDDTAVYYCARWGYGSSYRWFDYWGQGTLVTVSS
VL: DIQMTQSPSSLSASVGDRVTITCLASQPIGIWLAWYQQKPGKSPKLLIYAATSLADGVPSRFSGSGSGTDFTFTISSLQPEDIATYYCQQLYSSPWTFGGGTKVEIKR
notes: Humanized IgG4 (S228P)/kappa
B6: h1701-014 (antibody, human IgG4 S228P, kappa, V domains shown)
VH: QVQLVQSGAEVKKPGASVKVSCKASGYTFTDYYMNWVKQAPGQGLEWIGDIIPNNGGSKYNQKFKDRVTMTTDTSTSTAYMELRSLRSEDTAVYYCATWGYGSSYRWFDYWGQGTLVTVSS
VL: DIQMTQSPSSLSASVGDRVTITCLASQPIGIWLAWYQQKPGKSPKLLIYAATSLADGVPSRFSGSGSGTDFTFTISSLQPEDIATYYCQQLYSSPWTFGGGTKVEIKR
notes: Humanized IgG4 (S228P)/kappa
B7: h1701-013 (antibody, human IgG4 S228P, kappa, V domains shown)
VH: QVQLVQSGAEVKKPGASVKVSCKASGYTFTDYYMNWVKQAPGQGLEWIGDIIPNNGGSKYNQKFKDRVTMTTDTSTSTAYMELRSLRSEDTAVYYCATWGYGSSYRWFDYWGQGTLVTVSS
VL: DIQMTQSPSSLSASVGDRVTITCLASQPIGIWLAWYQQKPGKAPKLLIYAATSLADGVPSRFSGSGSGTDFTFTISSLQPEDIATYYCQQLYSSPWTFGGGTKVEIKR
notes: Humanized IgG4 (S228P)/kappa
B8: h1701-011 (antibody, human IgG4 S228P, kappa, V domains shown)
VH: QVQLVQSGAEVKKPGASVKVSCKASGYTFTDYYMNWVRQAPGQGLEWIGDIIPNNGGSKYNQKFKDRVTMTTDTSTSTAYMELRSLRSDDTAVYYCATWGYGSSYRWFDYWGQGTLVTVSS
VL: DIQMTQSPSSLSASVGDRVTITCLASQPIGIWLAWYQQKPGKAPKLLIYAATSLADGVPSRFSGSGSGTDFTFTISSLQPEDIATYYCQQLYSSPWTFGGGTKVEIKR
notes: Humanized IgG4 (S228P)/kappa
B9: h1701-017 (antibody, human IgG4 S228P, kappa, V domains shown)
VH: QVQLVQSGAEVKKPGASVKVSCKASGYTFTDYYMNWVKQAPGQGLEWIADIIPNNGGSKYNQKFKDRATLTTDTSTSTAYMELRSLRSEDTAVYYCATWGYGSSYRWFDYWGQGTLVTVSS
VL: DIQMTQSPSSLSASVGDRVTITCLASQPIGIWLAWYQQKPGKAPKLLIYAATSLADGVPSRFSGSGSGTDFTFTISSLQPEDIATYYCQQLYSSPWTFGGGTKVEIKR
notes: Humanized IgG4 (S228P)/kappa
B10: h1701-012 (antibody, human IgG4 S228P, kappa, V domains shown)
VH: QVQLVQSGAEVKKPGASVKVSCKASGYTFTDYYMNWVRQAPGQGLEWIGDIIPNNGGSKYNQKFKDRVTMTTDTSTSTAYMELRSLRSDDTAVYYCATWGYGSSYRWFDYWGQGTLVTVSS
VL: DIQMTQSPSSLSASVGDRVTITCLASQPIGIWLAWYQQKPGKSPKLLIYAATSLADGVPSRFSGSGSGTDFTFTISSLQPEDIATYYCQQLYSSPWTFGGGTKVEIKR
notes: Humanized IgG4 (S228P)/kappa
B11: h1799-012 (antibody, human IgG4 S228P, kappa)
heavy: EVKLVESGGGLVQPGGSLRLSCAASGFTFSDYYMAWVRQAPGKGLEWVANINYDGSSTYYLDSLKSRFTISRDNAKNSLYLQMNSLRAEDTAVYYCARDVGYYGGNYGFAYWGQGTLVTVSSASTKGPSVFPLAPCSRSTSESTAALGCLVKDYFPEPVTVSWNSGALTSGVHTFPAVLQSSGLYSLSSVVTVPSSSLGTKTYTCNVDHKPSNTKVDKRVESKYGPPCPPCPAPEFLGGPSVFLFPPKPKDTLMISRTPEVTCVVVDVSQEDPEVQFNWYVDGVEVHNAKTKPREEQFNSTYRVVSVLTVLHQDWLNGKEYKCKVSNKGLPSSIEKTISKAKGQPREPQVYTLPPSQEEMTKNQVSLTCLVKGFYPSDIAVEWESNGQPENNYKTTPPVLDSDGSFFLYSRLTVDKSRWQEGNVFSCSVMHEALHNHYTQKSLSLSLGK
light: DIQMTQSPSSLSASVGDRVTITCRASDNIYSYLAWYQQKPGKAPQLLVYNAKTLAEGVPSRFSGSGSGTDFTLTISSLQPEDFATYYCQQHYGSPLTFGQGTKLEIKRTVAAPSVFIFPPSDEQLKSGTASVVCLLNNFYPREAKVQWKVDNALQSGNSQESVTEQDSKDSTYSLSSTLTLSKADYEKHKVYACEVTHQGLSSPVTKSFNRGEC
notes: Humanized IgG4 (S228P)/kappa
B12: h1799-009 (antibody, human IgG4 S228P, kappa)
heavy: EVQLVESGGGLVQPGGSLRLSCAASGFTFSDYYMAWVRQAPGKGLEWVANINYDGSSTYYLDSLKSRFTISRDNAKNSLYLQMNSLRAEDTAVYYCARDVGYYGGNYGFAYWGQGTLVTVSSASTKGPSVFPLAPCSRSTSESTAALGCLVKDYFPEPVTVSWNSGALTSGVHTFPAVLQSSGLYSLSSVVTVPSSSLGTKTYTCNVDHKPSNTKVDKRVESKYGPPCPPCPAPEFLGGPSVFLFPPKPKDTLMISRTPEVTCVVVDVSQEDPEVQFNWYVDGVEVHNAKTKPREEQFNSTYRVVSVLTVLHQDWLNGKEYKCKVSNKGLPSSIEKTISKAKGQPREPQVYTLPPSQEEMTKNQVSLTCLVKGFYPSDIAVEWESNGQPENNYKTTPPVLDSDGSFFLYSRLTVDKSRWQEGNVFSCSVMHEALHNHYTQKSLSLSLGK
light: DIQMTQSPSSLSASVGDRVTITCRASDNIYSYLAWYQQKPGKSPQLLVYNAKTLAEGVPSRFSGSGSGTDFTLTISSLQPEDFASYYCQQHYGSPLTFGQGTKLEIKRTVAAPSVFIFPPSDEQLKSGTASVVCLLNNFYPREAKVQWKVDNALQSGNSQESVTEQDSKDSTYSLSSTLTLSKADYEKHKVYACEVTHQGLSSPVTKSFNRGEC
notes: Humanized IgG4 (S228P)/kappa
B13: h1799-017 (antibody, human IgG4 S228P, kappa, V domains shown)
VH: EVKLVESGGGLVQPGGSLRLSCAASGFTFSDYYMAWVRQAPGKGLEWVANINYDGSSTYYLDSLKSRFTISRDNAKNSLYLQMNSLKAEDTAVYYCARDVGYYGGNYGFAYWGQGTLVTVSS
VL: DIQMTQSPSSLSASVGDRVTITCRASDNIYSYLAWYQQKPGKAPQLLVYNAKTLAEGVPSRFSGSGSGTDFTLTISSLQPEDFATYYCQQHYGSPLTFGQGTKLEIKR
notes: Humanized IgG4 (S228P)/kappa
B14: h1799-008 (antibody, human IgG4 S228P, kappa)
heavy: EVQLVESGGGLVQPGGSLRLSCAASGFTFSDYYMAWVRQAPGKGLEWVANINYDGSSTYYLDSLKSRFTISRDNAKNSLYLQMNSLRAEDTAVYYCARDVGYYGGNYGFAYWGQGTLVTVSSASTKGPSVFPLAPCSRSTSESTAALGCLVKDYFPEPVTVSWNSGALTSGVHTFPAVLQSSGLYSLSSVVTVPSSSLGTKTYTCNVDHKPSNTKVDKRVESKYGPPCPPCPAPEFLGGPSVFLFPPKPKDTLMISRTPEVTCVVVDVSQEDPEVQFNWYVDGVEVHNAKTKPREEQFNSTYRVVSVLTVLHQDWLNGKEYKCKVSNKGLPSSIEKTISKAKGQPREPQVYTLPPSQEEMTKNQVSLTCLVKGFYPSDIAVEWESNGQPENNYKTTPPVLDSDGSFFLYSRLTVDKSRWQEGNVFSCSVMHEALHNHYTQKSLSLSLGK
light: DIQMTQSPSSLSASVGDRVTITCRASDNIYSYLAWYQQKPGKSPQLLVYNAKTLAEGVPSRFSGSGSGTDFTLTISSLQPEDFATYYCQQHYGSPLTFGQGTKLEIKRTVAAPSVFIFPPSDEQLKSGTASVVCLLNNFYPREAKVQWKVDNALQSGNSQESVTEQDSKDSTYSLSSTLTLSKADYEKHKVYACEVTHQGLSSPVTKSFNRGEC
notes: Humanized IgG4 (S228P)/kappa
B15: h1799-011 (antibody, human IgG4 S228P, kappa)
heavy: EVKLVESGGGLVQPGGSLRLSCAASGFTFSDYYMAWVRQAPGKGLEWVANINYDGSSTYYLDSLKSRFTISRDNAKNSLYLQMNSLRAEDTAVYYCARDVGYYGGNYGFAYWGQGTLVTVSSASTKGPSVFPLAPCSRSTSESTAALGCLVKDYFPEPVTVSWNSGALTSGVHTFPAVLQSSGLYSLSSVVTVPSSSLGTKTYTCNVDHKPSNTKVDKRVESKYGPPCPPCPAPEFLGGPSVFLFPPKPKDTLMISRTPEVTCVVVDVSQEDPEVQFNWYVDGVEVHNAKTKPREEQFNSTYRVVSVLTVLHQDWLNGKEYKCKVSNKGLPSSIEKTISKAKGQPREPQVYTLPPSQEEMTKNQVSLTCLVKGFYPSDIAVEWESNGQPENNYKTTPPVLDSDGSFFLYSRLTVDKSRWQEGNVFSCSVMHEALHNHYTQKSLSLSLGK
light: DIQMTQSPSSLSASVGDRVTITCRASDNIYSYLAWYQQKPGKAPKLLVYNAKTLAEGVPSRFSGSGSGTDFTLTISSLQPEDFATYYCQQHYGSPLTFGQGTKLEIKRTVAAPSVFIFPPSDEQLKSGTASVVCLLNNFYPREAKVQWKVDNALQSGNSQESVTEQDSKDSTYSLSSTLTLSKADYEKHKVYACEVTHQGLSSPVTKSFNRGEC
notes: Humanized IgG4 (S228P)/kappa
B16: h1799-016 (antibody, human IgG4 S228P, kappa, V domains shown)
VH: EVKLVESGGGLVQPGGSLRLSCAASGFTFSDYYMAWVRQAPGKGLEWVANINYDGSSTYYLDSLKSRFTISRDNAKNSLYLQMNSLKAEDTAVYYCARDVGYYGGNYGFAYWGQGTLVTVSS
VL: DIQMTQSPSSLSASVGDRVTITCRASDNIYSYLAWYQQKPGKAPKLLVYNAKTLAEGVPSRFSGSGSGTDFTLTISSLQPEDFATYYCQQHYGSPLTFGQGTKLEIKR
notes: Humanized IgG4 (S228P)/kappa
B17: h1799-014 (antibody, human IgG4 S228P, kappa)
heavy: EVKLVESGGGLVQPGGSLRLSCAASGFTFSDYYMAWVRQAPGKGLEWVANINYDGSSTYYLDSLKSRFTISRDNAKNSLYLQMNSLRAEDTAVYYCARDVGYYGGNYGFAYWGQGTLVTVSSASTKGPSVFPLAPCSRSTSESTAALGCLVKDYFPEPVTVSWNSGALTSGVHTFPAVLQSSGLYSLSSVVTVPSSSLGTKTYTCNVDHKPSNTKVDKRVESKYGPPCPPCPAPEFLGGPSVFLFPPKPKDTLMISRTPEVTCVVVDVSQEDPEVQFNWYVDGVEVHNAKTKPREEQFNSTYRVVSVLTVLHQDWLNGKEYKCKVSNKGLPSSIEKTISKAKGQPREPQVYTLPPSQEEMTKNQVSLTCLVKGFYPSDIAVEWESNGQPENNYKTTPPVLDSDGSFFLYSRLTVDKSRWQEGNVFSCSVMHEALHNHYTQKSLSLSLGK
light: DIQMTQSPSSLSASVGDRVTITCRASDNIYSYLAWYQQKPGKSPQLLVYNAKTLAEGVPSRFSGSGSGTDFTLTISSLQPEDFASYYCQQHYGSPLTFGQGTKLEIKRTVAAPSVFIFPPSDEQLKSGTASVVCLLNNFYPREAKVQWKVDNALQSGNSQESVTEQDSKDSTYSLSSTLTLSKADYEKHKVYACEVTHQGLSSPVTKSFNRGEC
notes: Humanized IgG4 (S228P)/kappa
B18: h1799-015 (antibody, human IgG4 S228P, kappa, V domains shown)
VH: EVKLVESGGGLVQPGGSLRLSCAASGFTFSDYYMAWVRQAPGKGLEWVANINYDGSSTYYLDSLKSRFTISRDNAKNSLYLQMNSLKAEDTAVYYCARDVGYYGGNYGFAYWGQGTLVTVSS
VL: DIQMTQSPSSLSASVGDRVTITCRASDNIYSYLAWYQQKPGKAPKLLIYNAKTLAEGVPSRFSGSGSGTDFTLTISSLQPEDFATYYCQQHYGSPLTFGQGTKLEIKR
notes: Humanized IgG4 (S228P)/kappa
B19: h1799-018 (antibody, human IgG4 S228P, kappa, V domains shown)
VH: EVKLVESGGGLVQPGGSLRLSCAASGFTFSDYYMAWVRQAPGKGLEWVANINYDGSSTYYLDSLKSRFTISRDNAKNSLYLQMNSLKAEDTAVYYCARDVGYYGGNYGFAYWGQGTLVTVSS
VL: DIQMTQSPSSLSASVGDRVTITCRASDNIYSYLAWYQQKPGKSPQLLVYNAKTLAEGVPSRFSGSGSGTDFTLTISSLQPEDFATYYCQQHYGSPLTFGQGTKLEIKR
notes: Humanized IgG4 (S228P)/kappa
B20: h1799-013 (antibody, human IgG4 S228P, kappa)
heavy: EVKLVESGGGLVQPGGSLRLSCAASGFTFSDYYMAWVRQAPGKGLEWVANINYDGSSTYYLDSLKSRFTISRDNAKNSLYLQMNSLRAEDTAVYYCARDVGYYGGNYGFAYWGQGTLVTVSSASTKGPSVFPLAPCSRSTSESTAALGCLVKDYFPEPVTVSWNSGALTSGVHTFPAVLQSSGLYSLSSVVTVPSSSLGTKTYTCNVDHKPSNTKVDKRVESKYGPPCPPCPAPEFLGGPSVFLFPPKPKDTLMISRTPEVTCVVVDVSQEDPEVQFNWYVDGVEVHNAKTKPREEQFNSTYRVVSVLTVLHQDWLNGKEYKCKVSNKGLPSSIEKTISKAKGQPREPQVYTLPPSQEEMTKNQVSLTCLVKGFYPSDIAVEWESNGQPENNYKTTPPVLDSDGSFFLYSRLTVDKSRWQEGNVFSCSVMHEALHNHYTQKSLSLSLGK
light: DIQMTQSPSSLSASVGDRVTITCRASDNIYSYLAWYQQKPGKSPQLLVYNAKTLAEGVPSRFSGSGSGTDFTLTISSLQPEDFATYYCQQHYGSPLTFGQGTKLEIKRTVAAPSVFIFPPSDEQLKSGTASVVCLLNNFYPREAKVQWKVDNALQSGNSQESVTEQDSKDSTYSLSSTLTLSKADYEKHKVYACEVTHQGLSSPVTKSFNRGEC
notes: Humanized IgG4 (S228P)/kappa
B21: h1799-007 (antibody, human IgG4 S228P, kappa)
heavy: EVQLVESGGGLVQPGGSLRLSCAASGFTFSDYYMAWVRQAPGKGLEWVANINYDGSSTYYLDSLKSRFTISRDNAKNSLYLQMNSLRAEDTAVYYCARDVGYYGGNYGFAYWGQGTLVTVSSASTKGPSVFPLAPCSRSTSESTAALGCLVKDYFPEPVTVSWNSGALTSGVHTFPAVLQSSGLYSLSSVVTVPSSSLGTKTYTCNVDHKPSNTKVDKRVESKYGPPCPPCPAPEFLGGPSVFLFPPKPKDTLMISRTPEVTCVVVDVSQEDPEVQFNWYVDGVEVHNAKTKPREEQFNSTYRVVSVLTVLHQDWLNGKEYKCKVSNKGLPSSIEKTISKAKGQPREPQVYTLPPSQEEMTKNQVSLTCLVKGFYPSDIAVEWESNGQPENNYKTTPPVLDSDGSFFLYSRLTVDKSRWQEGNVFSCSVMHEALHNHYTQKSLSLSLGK
light: DIQMTQSPSSLSASVGDRVTITCRASDNIYSYLAWYQQKPGKAPQLLVYNAKTLAEGVPSRFSGSGSGTDFTLTISSLQPEDFATYYCQQHYGSPLTFGQGTKLEIKRTVAAPSVFIFPPSDEQLKSGTASVVCLLNNFYPREAKVQWKVDNALQSGNSQESVTEQDSKDSTYSLSSTLTLSKADYEKHKVYACEVTHQGLSSPVTKSFNRGEC
notes: Humanized IgG4 (S228P)/kappa
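Also: antibody binding at serial dilutions to PFA-fixed cells for 1 h at 37 °C, read as TMB colour signal after acid stop.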

The assay deals with T1, human TIM-3 full length, overexpressed on CHO-S cells (human, UniProt Q8TDQ0 22-301).
T1 construct: cells fixed with 4% PFA on plates; also called HAVCR2; Tim-3-overexpressing CHO-S cells
The experiment in a line: cell-based ELISA on fixed CHO-S cells overexpressing human TIM-3. (In general: In an ELISA, binding on a coated surface is turned into a signal by an enzyme label.)
Method: The binding activity of anti-TIM-3 antibody to CHO-S cells overexpressing human TIM-3 is detected via a binding assay. […] TIM-3-overexpressing cells were immobilized on a 96-well plate. After the addition of the antibody, signal strength was used to determine the binding activity of the antibody to Tim-3-overexpressing CHO-S cells.
The cells were inoculated on a 96-well plate with 4E5/ml density, 100 μg/well, and cultured overnight. Supernatant was discarded and the plate was washed three times with PBS. 100 μl/well of 4% PFA was added into each well, and the plate was fixed at room temperature for 30 minutes. The plate was washed three times with PBS. The liquid was discarded, and 200 μl of blocking solution (5% skim milk (Guangming skim milk powder) diluted with PBS) was added to each well. The plate was incubated at 37° C. for 2.5 h. Then the blocking solution was discarded, and the plate was washed 5 times with PBST buffer (pH 7.4 PBS containing 0.05% Tween-20). 50 μl/well of various concentrations of antibodies to be tested (antibody via hybridoma purification or humanized antibody), diluted with sample buffer, were added into each well, and incubated at 37° C. for 1 h. […] The plate was washed 6 times with PBST, and 100 μl/well TMB chromogenic substrates (KPL, Cat, No., 52-00-03) was added to each well. The plate was incubated at room temperature for 5-15 min. Reaction was stopped by the addition of 50 μl of 1 M H₂SO₄ to each well.
Molecule B1 yielded an EC50 of 0.602 nM.

As for B2, the EC50 was 0.087 nM.

In turn, B3 gave an EC50 of 2.42 nM.

Molecule B4 returned a half-maximal effective concentration (EC50) of 0.265 nM.

B5 registered an EC50 of 0.735 nM. This EC50 is about 2.8-fold higher than that of the molecule before.

For B6, the midpoint of the response, the EC50, lay at 0.124 nM. Compared with the last molecule, the EC50 is about 5.9-fold lower.

Take B7: the EC50 came out at 0.199 nM.

B8 yielded a 50% effective concentration (EC50) of 0.188 nM. The EC50 values of the last two molecules are within 1.5-fold of each other.

Consider B9, for which a half-maximal effect (EC50) was put at 0.105 nM. Compared with the last molecule, the EC50 is about 1.8-fold lower.

As for B10, the EC50 turned out to be 0.221 nM.

Turning to B11, the EC50 turned out to be 0.158 nM. The EC50 values of the last two molecules are within 1.5-fold of each other.

With B12, a half-maximal effect (EC50) was put at 0.076 nM.

The molecule B13 yielded an EC50 of 0.194 nM. Against the preceding molecule, the EC50 is about 2.6-fold higher.

As for B14, the concentration giving a half-maximal response (EC50) worked out at 0.067 nM.

B15 gave an EC50 of 0.114 nM.

In turn, B16 displayed an EC50 of 0.117 nM. This EC50 and that of the molecule before are within 1.5-fold of each other.

In turn, B17 had an EC50 of 0.116 nM.

For the molecule B18, the EC50 amounted to 0.188 nM.

On to B19, for which a half-maximal effect (EC50) was put at 0.215 nM.

In turn, B20 displayed an EC50 of 0.139 nM.

B21 came in with an EC50 of 0.109 nM.

As usually defined, the EC50 is the midpoint of the concentration-response curve.
